Here are results for one molecule from patent US11110182B2, “Multifunctional RNA nanoparticles and methods for treating cancer and therapeutic resistant cancer” (University of Cincinnati, priority 2016, dated 2021).

This data set in a line: Biosafety during therapeutic treatment (body weight, organ H&E histopathology). The format is in vivo, athymic nude mice. The method, then: FIG. 12A) During therapeutic treatment to orthotopic xenograft mouse models, the body weights of mice were recorded every three days. FIG. 12B) After therapeutic treatment, major organs were excised, fixed in 10% neutral formalin buffer, embedded in paraffin, sectioned and examined for histopathology by H&E staining. Scale bar: 100 μm.
Migration and metastasis assay. The 8-μm-pore-size polycarbonate membrane, which separates the two chambers of a 6.5-mm Transwell (Costar), was coated with or without 1:8 DMEM-diluted Matrigel (Corning). […] Cells at top side of membranes were removed completely, and cells at the bottom side were examined with an Olympus SZX12 microscope and counted. • Mammosphere culture and breast cancer stem cell analyses. […] After treatment with or without 1 μM 4-OHT for 7 days, mammosphere formation was recorded using an Axiovert S100 TV inverted microscope (Zeiss). […] After resuspension with 0.5 mL PBS buffer, CD44^+/CD24^−/low cell population was analyzed by flow cytometry. • Orthotopic xenograft breast tumor mouse model, in vivo imaging and anti-tumor therapy. […] The tumor volume was monitored every 3 days, and tumor size was calculated using the formula: volume=0.5×(width)^2×(length). […]

B1: pRNA-HER2apt-siMED1: 3-WJ pRNA nanoparticle bearing a HER2-targeting RNA aptamer and two different MED1 siRNAs; strands p1 SEQ ID NO: 3, p2 SEQ ID NO: 4 (nucleic acid)
chain 1: GGACAGUGAAAGUGAGUCAAAGGAUCAAUCAUGGCCAAAGAUGUUACUUUGAGAGCCUU
chain 2: GGCUCUCAAAGUAACAUCUAAGGCCAUGUGUAUGUGGGGGGAGGACGAUGCGGUCUGCUGUGCUUGAUAUGCCCCAGACGACUCGCCCCCCACAUACUUUGUUGAUCCAAUGACUCACUUUCACUGUCCUU
modifications: 2'-F modification; third strand may lack entry; pRNA-HER2apt-siMED1, p1; pRNA-HER2apt-siMED1, p2
As for B1, the “histopathology of heart, liver, spleen, lung and kidney” value (H&E staining after therapeutic treatment) was “no evidence of any apparent organ injury or disturbance”. Further, where the note is “entire treatment period, systemic administration”, the mouse body weight result was “no significant reduction”.
